What was measured:
[1] = test system: fed blood glucose levels in C57BL/6J mice; type: in vivo
[2] = set-up: species or system mice; conditions: mouse, in vivo

Substance	duration of blood glucose reduction after a single s.c. injection [1]	area under the curve (AUC) [2]	terminal elimination phase T1/2β [2]	total body clearance (CL) rate [2]
exendin–C–PMPC75k: exendin–4 C–terminal conjugate with zwitterionic PMPC, larger conjugate	up to 3 days	–	–	–
green fluorescent protein [native GFP]	–	14 %h/mL	4 h	7 mL/h

— PMC5320947 (Angewandte Chemie (International ed. in English), 2016)
